We go through two substances from paper PMC3665621 (Nuclear medicine and biology, 2013).

One data set relates to cathepsin B. The note with it: room temperature, up to 96 hours.
The test system of data set [1] is HPAC tumor-bearing SCID mice. Conditions: mouse, in vivo.

Take “DO3A(tBu)3-G- (D)S(tBu)-(D)S(tBu)-G- G-G-F”: the cleaved bond result in the data set on cathepsin B is “G-G, 24 h”.

Turning to X = GSS, Y = PMGLP [177Lu-MAC2], in data set [1], the “increase of tumor accumulation from 24 h to 72 h post-injection” value amounted to 113% and the “lower liver retention compared to control (177Lu-MAC0)” value is on record as 2.1 fold.
